B1: Hairpin Ribozyme (parent)
chain: GUCCUCUUUCACGUGCGCGUGAAAGAGAGAAGUGAACCAGAGAAACACACGUUGUGGUAUAUUACCUGGUA

Variants of: B1
Assay: self-cleavage, relative activity (ratio to wild type); higher = more cleavage; co-transcriptional

Variant	self-cleavage
GUCCUCUUUCACGUUCGCGUGAAAGAGAGAAGUGCACCAGAGAAACACACGUUGUGGUAUAUUACCUGGUA [G15U A35C]	1.16
GUCCUCUUUCACGUUCGCGUGAAAGAGAGAAGUGGACCAGAGAAACACACGUUGUGGUAUAUUACCUGGUA [G15U A35G]	0.933
GUCCUCUUUCACGUCCGCGUGAAAGAGAGAAGUGAACCAGAGAAACACACGUUGUGGUAUAUUAGCUGGUA [G15C C65G]	0.369
GUCCUCUUUCACGUUCGCGUGAAAGAGAGAAGUGAACCAGAGAAUCACACGUUGUGGUAUAUUACCUGGUA [G15U A45U]	0.221
GUCCUCUUUCACGUCCGCGUGAAAGAGAGAAGUGAACCAGAGAAACACACGUUGUGGUAUAGUACCUGGUA [G15C U62G]	0.134
GUCCUCUUUCACGUCCGCGUGAAAGAGAGAAGUGAACCAGAGAAACACACGUUGUGUUAUAUUACCUGGUA [G15C G57U]	0.282
GUCCUCUUUCACGUCCGCGUUAAAGAGAGAAGUGAACCAGAGAAACACACGUUGUGGUAUAUUACCUGGUA [G15C G21U]	1.06
GUCCUCUUUCACGUCCGCGUCAAAGAGAGAAGUGAACCAGAGAAACACACGUUGUGGUAUAUUACCUGGUA [G15C G21C]	0.897
GUCCUCUUUCACGUCCCCGUGAAAGAGAGAAGUGAACCAGAGAAACACACGUUGUGGUAUAUUACCUGGUA [G15C G17C]	0.668
GUCCUCUUUCACGUCCACGUGAAAGAGAGAAGUGAACCAGAGAAACACACGUUGUGGUAUAUUACCUGGUA [G15C G17A]	1.03
GUCCUCUUUCACGUCCGCGUGAAAGAGAGAAGUGAUCCAGAGAAACACACGUUGUGGUAUAUUACCUGGUA [G15C A36U]	0.505
GUCCUCUUUCACGUCCGCGUGAAAGACAGAAGUGAACCAGAGAAACACACGUUGUGGUAUAUUACCUGGUA [G15C G27C]	0.204
GUCCUCUUUCACGUCCGCGUGAAAGAUAGAAGUGAACCAGAGAAACACACGUUGUGGUAUAUUACCUGGUA [G15C G27U]	0.214
GUCCUCUUUCACGUUCGCGUGAAAGAGAGAAGUGAACCAGGGAAACACACGUUGUGGUAUAUUACCUGGUA [G15U A41G]	0.943
GUCCUCUUUCACGUUCGCGUGUAAGAGAGAAGUGAACCAGAGAAACACACGUUGUGGUAUAUUACCUGGUA [G15U A22U]	0.996
GUCCUCUUUCACGUUCGCGUGAAAGAGAGAAGUGAACCUGAGAAACACACGUUGUGGUAUAUUACCUGGUA [G15U A39U]	0.544
GUCCUCUUUCACGUCCGCGUGAAAGAGAGAAGUUAACCAGAGAAACACACGUUGUGGUAUAUUACCUGGUA [G15C G34U]	0.975
GUCCUCUUUCACGUCCGCGUGAAAGAGAGAAGUGAACCAGAGAAACACACCUUGUGGUAUAUUACCUGGUA [G15C G51C]	1.23
GUCCUCUUUCACGUCCGCGUGAAAGAGAGAAGUGAACCAGAGAAACACACAUUGUGGUAUAUUACCUGGUA [G15C G51A]	0.796

Variant	self-cleavage
GUCCUCUUUCACGUCCGCGUGAAAGAGAGAAGUGAACCAGAGAAACACACGUUGUGGUAUAUUACCUGGUG [G15C A71G]	0.98
GUCCUCUUUCACGUCCGCGUGAAAGAGAGAAGUGAACCAGAGAAACACACGUUGUGGUAUAUUACCUGGGA [G15C U70G]	0.946
GUCCUCUUUCACGUCCGCGUGAAAGAGAGAAGUGAACCAGAGAAACACACGUUGUGGUAUAUUACCUGGCA [G15C U70C]	0.965
GUCCUCUUUCACGUCCGCGUGAAAGAGAGAAGUGAACCAGAGAAACAUACGUUGUGGUAUAUUACCUGGUA [G15C C48U]	0.112
GUCCUCUUUCACGUCCGCGUGAAAGAGAGAAGUGUACCAGAGAAACACACGUUGUGGUAUAUUACCUGGUA [G15C A35U]	0.703
GUCCUCUUUCACGUCCGCGUGAAAGAGAGAAGUGCACCAGAGAAACACACGUUGUGGUAUAUUACCUGGUA [G15C A35C]	0.628
GUCCUCUUUCACGUCCGCGUGAAAGAGAGAAGUGAACCAGAGAAACACACGUUGGGGUAUAUUACCUGGUA [G15C U55G]	0.487
GUCCUCUUUCACGUCCGCGUGAAAGAGAGAAGUGAACCAGAGAAACACACGUUGCGGUAUAUUACCUGGUA [G15C U55C]	0.276
GUCCUCUUUCACGUCCGCGUGAAAGAGAGAAGUGAACCAGAGAAACACACGUUGAGGUAUAUUACCUGGUA [G15C U55A]	0.279
GUCCUCUUUCACGUUCGCGUGAAAGAGAGAAGUGAACCAGAGAAACACACGUUGUGGUAUAUUACCUGGUC [G15U A71C]	1.53
GUCCUCUUUCACGUCCGCGUGAAAGAGAGAAGUGAACCAGAGAAACACACGGUGUGGUAUAUUACCUGGUA [G15C U52G]	0.812
GUCCUCUUUCACGUCCGCGUGAAAGAGAGAAGUGAAUCAGAGAAACACACGUUGUGGUAUAUUACCUGGUA [G15C C37U]	0.592
GUCCUCUUUCACGUCCGCGUGAAAGAGAGAAGUGAAACAGAGAAACACACGUUGUGGUAUAUUACCUGGUA [G15C C37A]	0.316
GUCCUCUUUCACGUCCGCGUGAAAGAGAGAAGUGAACCAGAGAAACACACGUUGUGGUACAUUACCUGGUA [G15C U60C]	1.25
GUCCUCUUUCACGUUCGCGUGAAAGAGAGACGUGAACCAGAGAAACACACGUUGUGGUAUAUUACCUGGUA [G15U A31C]	0.118
GUCCUCUUUCACGUCGGCGUGAAAGAGAGAAGUGAACCAGAGAAACACACGUUGUGGUAUAUUACCUGGUA [G15C C16G]	1.06
GUCCUCUUUCACGUUCGAGUGAAAGAGAGAAGUGAACCAGAGAAACACACGUUGUGGUAUAUUACCUGGUA [G15U C18A]	1.07
GUCCUCUUUCACGUCCGCGUGAAAGAGAAAAGUGAACCAGAGAAACACACGUUGUGGUAUAUUACCUGGUA [G15C G29A]	0.148
GUCCUCUUUCACGUUCGCGUGAAAGAGAGAAGUGAACCAGAGCAACACACGUUGUGGUAUAUUACCUGGUA [G15U A43C]	0.195
